Results as given in PMC7074877 (ACS chemical neuroscience, 2018).

Experiment: Transmission electron microscopy of assemblies
Format: physicochemical
Conditions: 7 μL aliquots on carbon-coated copper grids, stained with 1% uranyl acetate

## HEWL: fibrils from hen egg white lysozyme, positive control for ThT and TEM
  average diameter of assemblies by TEM: 38 nm
